Square brackets hold non-standard residues; d marks the D form. Ends that are not written are not given here. * marks the point of attachment. FITC = O=C1OC2(c3ccc(O)cc3Oc3cc(O)ccc32)c2ccc(NC(=S)*)cc21; pS = N[C@@H](COP(=O)(O)O)C(=O)O
B3: nano-FIP200(1450–1594) (domain or fragment, human, UniProt Q8TDY2 1450-1594, looked up)
chain: HMLSEEKQRIMLLERTLQLKEEENKRLNQRLMSQSMSSVSSRHSEKIAIRDFQVGDLVLIILDERHDNYVLFTVSPTLYFLHSESLPALDLKPGEGASGASRRPWVLGKVMEKEYCQAKKAQNRFKVPLGTKFYRVKAVSWNKKV
notes: FIP200 (RB1CC1), human, residues 1450-1594; the construct of the analytical gel filtration with Optineurin fragments; also called FIP200 Claw domain; source: E. coli BL21 (DE3), purified (Ni-NTA, size-exclusion chromatography)
B4: FIP200 Claw domain (residues 1490–1594) (domain or fragment, human, UniProt Q8TDY2 1490-1594, looked up)
chain: SRHSEKIAIRDFQVGDLVLIILDERHDNYVLFTVSPTLYFLHSESLPALDLKPGEGASGASRRPWVLGKVMEKEYCQAKKAQNRFKVPLGTKFYRVKAVSWNKKV
notes: 15N-labelled in the NMR titrations; also called RB1CC1; source: E. coli BL21 (DE3), purified (Ni-NTA, size-exclusion chromatography); not shown: Trx (inferred from the cleaved 3C protease site), N-terminal, cleaved; His6, N-terminal, cleaved

What was measured:
[1] = biological target: B4; assay: fluorescence polarisation; FITC-labeled peptide (~0.25 μM) titrated with increasing amounts of protein; 20 mM Tris pH 7.9, 100 mM NaCl, 1 mM DTT, 25 °C; one-site binding model; conditions: both partners purified
[2] = biological target: B4; assay: AUC; sedimentation velocity, 142,250 x g, 20 °C; FIP200(1490–1594) alone, CCPG1 FIR2 S104E alone, and FIP200(1490–1594) mixed with excess CCPG1 FIR2 S104E; conditions: both partners purified
[3] = biological target: T1, p-Optineurin(33–209), Optineurin(33–209) phosphorylated by TBK1 (human, UniProt Q96CV9 33-209, phosphoserine at 177 (the major site phosphorylated by TBK1, by mass spectrometry)); assay: SEC; analytical gel filtration of purified proteins and their mixtures; Superose 200 increase 10/300 GL; 20 mM Tris-HCl pH 7.9, 100 mM NaCl, 1 mM DTT; conditions: both partners purified
T1 construct: S177 is called the major site; other phosphorylated sites are not excluded; source: E. coli BL21 (DE3), purified; phosphorylated in vitro by purified Trx-TBK1(1–674) from Sf9 cells
T1 sequence (Q96CV9 33-209): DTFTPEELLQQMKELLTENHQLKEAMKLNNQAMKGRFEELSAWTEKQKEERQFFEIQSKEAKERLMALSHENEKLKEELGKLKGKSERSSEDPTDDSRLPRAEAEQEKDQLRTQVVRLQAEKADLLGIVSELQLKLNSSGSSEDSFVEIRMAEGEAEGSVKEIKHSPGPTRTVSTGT

[4] = biological target: the molecule itself; assay: AUC; sedimentation velocity, 142,250 x g, 20 °C; FIP200(1490–1594) alone, CCPG1 FIR2 S104E alone, and FIP200(1490–1594) mixed with excess CCPG1 FIR2 S104E
GABARAP = biological target: T2, GABARAP (UniProt O95166 1-117); assay: fluorescence polarisation; FITC-labeled peptide (~0.25 μM) titrated with increasing amounts of protein; 20 mM Tris pH 7.9, 100 mM NaCl, 1 mM DTT, 25 °C; one-site binding model; conditions: both partners purified
T2 construct: GABARAP, one of the six mammalian ATG8 family proteins; construct not described; also called ATG8 family protein; mammalian ATG8 orthologue; source: bacteria (15N-labelled form grown in M9 minimal medium); construct not described
T2 sequence (O95166 whole entry): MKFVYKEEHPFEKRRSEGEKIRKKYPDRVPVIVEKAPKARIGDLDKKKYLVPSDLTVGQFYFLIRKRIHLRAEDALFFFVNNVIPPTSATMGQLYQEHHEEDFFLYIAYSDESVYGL

nano-FIP200(1450–1594) = biological target: B3; assay: SEC; analytical gel filtration of purified proteins and their mixtures; Superose 200 increase 10/300 GL; 20 mM Tris-HCl pH 7.9, 100 mM NaCl, 1 mM DTT; conditions: both partners purified

B1: Optineurin LIR synthetic peptide (un-phosphorylated) (peptide)
peptide: {FITC}-SSEDSFVEIRMAE
notes: Optineurin, human, LIR region; also called un-phosphorylated Optineurin LIR peptide; source: synthetic peptide, bought: ChinaPeptides (>98% pure)
Binder B1 has a Kd [1] of about 307 µM.

B2: CCPG1 FIR2 S104E (phosphomimetic mutant, residues 99–113) (domain or fragment, human, UniProt Q9ULG6 99-113, looked up)
chain: TASDDEDIVTLEPPK
notes: CCPG1, human, FIR2, residues 99-113; also called phosphomimetic S104E mutant of CCPG1 FIR2; source: E. coli BL21 (DE3), purified (Ni-NTA, size-exclusion chromatography)
For B2, the “stoichiometry N” value [2] was 1 CCPG1 FIR2 S104E per FIP200 chain (2:2).

B3: binds [3].

In the case of B4, the “stoichiometry N” value [4] is reported as 2.

B5: S177-phosphorylated Optineurin LIR synthetic peptide (p-Optineurin LIR) (peptide)
peptide: SSED[pS]FVEIRMAE
modifications: also: N-terminal FITC in fluorescence polarisation assay only
notes: source: synthetic peptide, bought: ChinaPeptides (>98% pure)
Work on B5 yielded a Kd [1] of about 12 µM.

B6: CCPG1 FIR2 synthetic peptide (residues 99–113) (peptide)
peptide: TASDDSDIVTLEPPK
modifications: also: FITC on N-terminus in fluorescence polarisation assay only
notes: The results speak of a 13-residue peptide; also called un-phosphorylated CCPG1 FIR2; wild-type CCPG1 FIR2; source: synthetic peptide, bought: ChinaPeptides (>98% pure)
In the case of B6, the Kd (GABARAP) is reported as about 27 µM and the binding result [1] is reported as “binds”.

B7: Optineurin(169–185) S177E (phosphomimetic mutant) (domain or fragment, human, UniProt Q96CV9 169-185, looked up)
chain: NSSGSSEDEFVEIRMAE
notes: also called S177E mutant of Optineurin LIR; source: E. coli BL21 (DE3), purified (Ni-NTA, size-exclusion chromatography)
B7: binds (nano-FIP200(1450–1594)).

B8: Optineurin(169–185) S177E/F178Y (domain or fragment, human, UniProt Q96CV9 169-185, looked up)
chain: NSSGSSEDEYVEIRMAE
notes: also called F178 of the S177E mutant of Optineurin LIR replaced by Tyr; source: E. coli BL21 (DE3), purified (Ni-NTA, size-exclusion chromatography)
B8: binds (nano-FIP200(1450–1594)).

B9: Optineurin(169–185) S177E/F178W (domain or fragment, human, UniProt Q96CV9 169-185, looked up)
chain: NSSGSSEDEWVEIRMAE
notes: also called F178 of the S177E mutant of Optineurin LIR replaced by Trp; source: E. coli BL21 (DE3), purified (Ni-NTA, size-exclusion chromatography)
B9: binds (nano-FIP200(1450–1594)).

Source: article PMC7946963, “Phosphorylation regulates the binding of autophagy receptors to FIP200 Claw domain for selective autophagy initiation” (Nature Communications, 2021)
